# Publication PMC3303851, “Structural Basis of Ets1 Cooperative Binding to Widely Separated Sites on Promoter DNA” (PLoS ONE, 2012)
# B1: Ets1 (residues 280–441) (domain or fragment, UniProt P14921 280-441, looked up)
# chain: VPSYDSFDSEDYPAALPNHKPKGTFKDYVRDRADLNKDKPVIPAAALAGYTGSGPIQLWQFLLELLTDKSCQSFISWTGDGWEFKLSDPDEVARRWGKRKNKPKMNYEKLSRGLRYYYDKNIIHKTAGKRYVYRFVCDLQSLLGYTPEELHAMLDVKPDADE
# notes: also called Ets1 dimer; source: cloned, expressed and purified according to reported protocols [36]
# Molecular target: the molecule itself
# Assay: crystal structure; Ets1 280-441 mixed 1:1.05 with TCRα promoter dsDNA; (Ets1)2•2DNA crystals grown at 295 K, space group P2_(1), refined at 3.1 Å; asymmetric unit holds an Ets1 homodimer and two pieces of dsDNA
protein,measurement,value
B1,stoichiometry N,2
